Where a chain is given by its changes, count along the chain named.
How the values were obtained:
[1] = target: T1, extracellular domain (ECD) of human GODZILLA (RNF167) (human, UniProt Q9H6Y7 25-173, limits assumed); assay: SPR (Biacore), ligand hRNF167 ECD (GODZILLA), analyte GOLIATH-F8 [CONT. 3]
T1 construct: extracellular domain; also called GODZILLA ECD

[2] = target: T2, extracellular domain (ECD) of human GRAIL (RNF128) (human, UniProt Q8TEB7 39-207, limits assumed); assay: SPR (Biacore), titrations at equilibrium, Biacore Analysis Software; column ECD GRAIL (hRNF128)
T2 construct: extracellular domain; also called GRAIL ECD
T2 sequence (looked up): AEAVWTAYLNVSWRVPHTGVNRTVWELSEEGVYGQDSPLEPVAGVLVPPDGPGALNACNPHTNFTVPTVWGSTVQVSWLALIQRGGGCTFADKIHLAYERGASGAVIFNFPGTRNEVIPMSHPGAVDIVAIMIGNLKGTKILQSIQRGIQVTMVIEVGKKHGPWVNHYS

[3] = target: T3, extracellular domain (ECD) of human GOLIATH (RNF130) (human, UniProt Q86XS8 28-194); assay: SPR (Biacore), titration at equilibrium, nanobody on ECD
T3 construct: extracellular domain; also called GOLIATH ECD
T3 sequence (looked up): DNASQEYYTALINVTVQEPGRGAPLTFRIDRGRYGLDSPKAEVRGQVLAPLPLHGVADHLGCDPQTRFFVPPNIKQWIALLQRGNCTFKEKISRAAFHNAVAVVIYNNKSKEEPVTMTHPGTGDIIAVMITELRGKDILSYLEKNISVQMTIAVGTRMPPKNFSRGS

[4] = target: T1, extracellular domain (ECD) of human …; assay: SPR (Biacore), titrations at equilibrium, Biacore Analysis Software; row GOLIATH-D1, column GODZILLA (hRNF167)
[5] = target: T1, extracellular domain (ECD) of human …; assay: SPR (Biacore), ligand hRNF167 ECD (GODZILLA), analyte GOLIATH-F2 [CONT. 2]
[6] = target: T2, extracellular domain (ECD) of human …; assay: SPR (Biacore), ligand hRNF128 ECD (GRAIL), analyte GOLIATH-F2 [CONT. 2]
[7] = target: T4, hRNF43 ECD; assay: SPR (Biacore), ligand hRNF43 ECD, nanobody as analyte
T4 construct: The human half of m18, which leaves the species open; also called extracellular domain of human RNF43
T4 chain: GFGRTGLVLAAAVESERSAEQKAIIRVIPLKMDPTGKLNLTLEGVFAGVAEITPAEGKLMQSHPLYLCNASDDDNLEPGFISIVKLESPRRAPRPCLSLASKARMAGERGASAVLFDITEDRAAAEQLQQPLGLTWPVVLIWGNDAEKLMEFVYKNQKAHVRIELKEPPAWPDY

[8] = target: T5, mRNF43 ECD; assay: SPR (Biacore), ligand mRNF43 ECD, nanobody as analyte
T5 construct: The mouse half of m18, which leaves the species open; also called extracellular domain of mouse RNF43
T5 chain: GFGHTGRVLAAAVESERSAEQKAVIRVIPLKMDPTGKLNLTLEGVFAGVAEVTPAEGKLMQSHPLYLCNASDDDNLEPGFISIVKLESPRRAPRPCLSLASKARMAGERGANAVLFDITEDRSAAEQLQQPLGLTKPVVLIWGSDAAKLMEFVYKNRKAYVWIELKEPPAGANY

[9] = target: T6, extracellular domain (ECD) of human or mouse RNF43 (human or mouse); assay: SPR (Biacore), nanobody on ECD
T6 construct: extracellular domain; also called RNF43 ECD

[10] = target: T7, mZNRF3 ECD; assay: SPR (Biacore), ligand mZNRF3 ECD, nanobody as analyte
T7 construct: The mouse half of m19, which leaves the species open; also called extracellular domain of mouse ZNRF3
T7 chain: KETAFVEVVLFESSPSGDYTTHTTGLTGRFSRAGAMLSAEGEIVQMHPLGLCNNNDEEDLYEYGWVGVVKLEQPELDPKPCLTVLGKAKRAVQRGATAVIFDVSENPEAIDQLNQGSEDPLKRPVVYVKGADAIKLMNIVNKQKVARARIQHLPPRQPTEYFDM

[11] = target: T8, hZNRF3 ECD; assay: SPR (Biacore), ligand hZNRF3 ECD, nanobody as analyte
T8 construct: The human half of m19, which leaves the species open; also called extracellular domain of human ZNRF3
T8 chain: T7 chain with H22Y, M36T, L153R

[12] = target: T9, extracellular domain (ECD) of human or mouse ZNRF3 (human or mouse); assay: SPR (Biacore), nanobody on ECD
T9 construct: extracellular domain; also called ZNRF3 ECD

[13] = target: T3, extracellular domain (ECD) of human …; assay: SPR (Biacore), ligand hRNF130 ECD (GOLIATH), analyte GRAIL-D1
[14] = target: T1, extracellular domain (ECD) of human …; assay: SPR (Biacore), titrations at equilibrium, Biacore Analysis Software; row GRAIL-D1, column GODZILLA (hRNF167)
[15] = target: T2, extracellular domain (ECD) of human …; assay: SPR (Biacore), titration at equilibrium, nanobody on ECD
[16] = target: T3, extracellular domain (ECD) of human …; assay: SPR (Biacore), titrations at equilibrium, Biacore Analysis Software; row GRAIL-E1, column GOLIATH (hRNF130)
[17] = target: T1, extracellular domain (ECD) of human …; assay: SPR (Biacore), titrations at equilibrium, Biacore Analysis Software; row GRAIL-E1, column GODZILLA (hRNF167)
[18] = target: T3, extracellular domain (ECD) of human …; assay: SPR (Biacore), titrations at equilibrium, Biacore Analysis Software; row GRAIL-E2, column GOLIATH (hRNF130)
[19] = target: T1, extracellular domain (ECD) of human …; assay: SPR (Biacore), titrations at equilibrium, Biacore Analysis Software; row GRAIL-E2, column GODZILLA (hRNF167)
[20] = target: T1, extracellular domain (ECD) of human …; assay: SPR (Biacore), titrations at equilibrium, Biacore Analysis Software; row GOLIATH-A1, column GODZILLA (hRNF167)
[21] = target: T2, extracellular domain (ECD) of human …; assay: SPR (Biacore), titrations at equilibrium, Biacore Analysis Software; row GOLIATH-A1, column GRAIL (hRNF128)
[22] = target: T5, mRNF43 ECD; assay: SPR (Biacore), ligand mRNF43 ECD, analyte RNF43 -A4

B1: GOLIATH (RNF130) VHH of SEQ ID NO: 8 (VHH)
VHH: QVQLQESGGGLVQAGGSLRLSCAASGTISFIGYMGWYRQAPGKERELVASIASGTSTYYADSVKGRFTISRDNAKNTVYLQMNSLKPEDTAVYYCAATQYIQDAHRYWGQGTQVTVSS
notes: also called GOLIATH nanobody
In the case of B1, the binding result [1] is reported as “no binding (tested: 2000 (unit not printed))”, the Kd [2] is reported as 70.2 nM and the Kd [3] is reported as 130 nM.

B2: GOLIATH (RNF130) VHH of SEQ ID NO: 6 (VHH)
VHH: B1 VHH with A104V
notes: also called D1; GOLIATH-D1
B2 was tested, and the binding result [4] was “no binding” and the Kd [3] was 6.38 nM.

B3: GOLIATH (RNF130) VHH of SEQ ID NO: 7 (VHH)
VHH: B1 VHH with F30V, Q99H
notes: also called GOLIATH nanobody
B3: no binding (tested: 4000 (unit not printed)) [5]; no binding (tested: 4000 (unit not printed)) [6].

B4: RNF43 VHH of SEQ ID NO: 11 (VHH)
VHH: QVQLQESGGGLVQAGGSLRLSCAASGTIFGLSDMGWYRQAPGKEREFVAAIAGGTITYYADSVKGRFTISRDNAKNTVYLQMNSLKPEDTAVYYCAAYKYDERYHSYWGQGTQVTVSS
notes: also called RNF43 nanobody
In the case of B4, the binding result [7] is reported as “binds”, the binding result [8] is reported as “binds” and the Kd [9] is reported as 163 nM.

B5: ZNRF3 VHH of SEQ ID NO: 14 (VHH)
VHH: QVQLQESGGGLVQAGGSLRLSCAASGTISYAHIMGWYRQAPGKERELVAGISQGSITNYADSVKGRFTISRDNAKNTVYLQMNSLKPEDTAVYYCAVISYDYIKSVPFRYWGQGTQVTVSS
notes: also called ZNRF3 nanobody
For B5, the binding result [10] was “binds”, the binding result [11] was “binds” and the Kd [12] was 0.7 nM.

B6: GRAIL (RNF128) VHH of SEQ ID NO: 1 (VHH)
VHH: QVQLQESGGGLVQAGGSLRLSCAASGYIFYGVHMGWYRQAPGKEREFVAAIDLGTTTYYADSVKGRFTISRDNAKNTVYLQMNSLKPEDTAVYYCAVYFDGLTNLPYWGQGTQVTVSS
notes: Purified nanobody; also called GRAIL nanobody
In the case of B6, the binding result [13] is reported as “no binding (tested: 500 (unit not printed))”, the binding result [14] is reported as “no binding” and the Kd [15] is reported as 8.99 nM.

B7: GRAIL (RNF128) VHH of SEQ ID NO: 2 (VHH)
VHH: QVQLQESGGGLVQAGGSLRLSCAASGNISVQLDMGWYRQAPGKEREFVAAINQGTTTYYADSVKGRFTISRDNAKNTVYLQMNSLKPEDTAVYYCAVYLYDIWNHPYWGQGTQVTVSS
notes: also called E1; GRAIL-E1
For B7, the binding result [16] was “no binding”, the binding result [17] was “no binding” and the Kd [15] was 7.92 nM.

B8: GRAIL (RNF128) VHH of SEQ ID NO: 3 (VHH)
VHH: QVQLQESGGGLVQAGGSLRLSCAASGSISGGKGMGWYRQAPGKEREFVAAIGSGAITYYADSVKGRFTISRDNAKNTVYLQMNSLKPEDTAVYYCAVYTTALDEYPYWGQGTQVTVSS
notes: also called E2; GRAIL-E2
With B8 the binding result [18] was “no binding”, the Kd [15] was 13.5 nM and the binding result [19] was “no binding”.

B9: GOLIATH (RNF130) VHH of SEQ ID NO: 5 (VHH)
VHH: QVQLQESGGGLVQAGGSLRLSCAASGYISGYYVMGWYRQAPGKEREFVASISYGASTYYADSVKGRFTISRDNAKNTVYLQMNSLKPEDTAVYYCAVDFDSNYAHTYWGQGTQVTVSS
notes: also called A1; GOLIATH-A1
In the case of B9, the binding result [20] is reported as “no binding”, the binding result [21] is reported as “no binding” and the Kd [3] is reported as 8.18 nM.

B10: RNF43 VHH of SEQ ID NO: 10 (VHH)
VHH: QVQLQESGGGLVQAGGSLRLSCAASGTIFDDLLMGWYRQAPGKERELVAAIGAGATTNYADSVKGRFTISRDNAKNTVYLQMNSLKPEDTAVYYCAAWWLYYKGDWALYLYWGQGTQVTVSS
notes: also called RNF43 nanobody
For B10, the binding result [22] was “no binding (tested: highest concentration not legible)” and the Kd [9] was 315 nM.

B11: RNF43 VHH of SEQ ID NO: 12 (VHH)
VHH: QVQLQESGGGLVQAGGSLRLSCAASGSIFWKPVMGWYRQAPGKEREFVAAITSGTNTYYADSVKGRFTISRDNAKNTVYLQMNSLKPEDTAVYYCAVDDYDVVEYPYWGQGTQVTVSS
notes: also called RNF43 nanobody
B11 was tested, and the Kd [9] was 41.5 nM.

B12: ZNRF3 VHH of SEQ ID NO: 13 (VHH)
VHH: QVQLQESGGGLVQAGGSLRLSCAASGTIFYTLFMGWYRQAPGKEREFVAGIGRGGITYYADSVKGRFTISRDNAKNTVYLQMNSLKPEDTAVYYCAVWYDFLHSDSQAYSYWGQGTQVTVSS
notes: also called ZNRF3 nanobody
In the case of B12, the Kd [12] is reported as 18.1 nM.

B13: GRAIL (RNF128) VHH of SEQ ID NO: 4 (VHH)
VHH: QVQLQESGGGLVQAGGSLRLSCAASGTISYYYAMGWYRQAPGKEREFVAAIDLGTSTYYADSVKGRFTISRDNAKNTVYLQMNSLKPEDTAVYYCAAWSDYVTELPYWGQGTQVTVSS
notes: also called GRAIL nanobody
For B13, the Kd [15] was 148 nM.

— patent US20240239891A1 (Stanford University, published 2024)
